For five molecules, Kd results are on record in publication PMC3750081.

First the molecules themselves.
B1: p53 codon 158 5'-MeC O6-POB-G (dsDNA)
DNA 1: ACCCGCGTCCGCGCCATGGCC
DNA 2: GGCCATGGCGCGGACGCGGGT
modifications: O6-POB-dG at strand 1 position 11; 5-methyl-C at strand 1 position 10 (text; Table 4 marks lost)
B2: p53 codon 248 O6-POB-G:MeC base pair (dsDNA)
DNA 1: CATGAACCGGAGGCCCATC
DNA 2: GATGGGCCTCCGGTTCATG
modifications: O6-POB-dG at strand 1 position 9; 5-methyl-C at strand 2 position 11
B3: p53 codon 248 5'-MeC O6-POB-G (dsDNA)
DNA 1: CATGAACCGGAGGCCCATC
DNA 2: GATGGGCCTCCGGTTCATG
modifications: O6-POB-dG at strand 1 position 9; 5-methyl-C at strand 1 position 8
B4: p53 codon 248 O6-POB-G (dsDNA)
DNA 1: CATGAACCGGAGGCCCATC
DNA 2: GATGGGCCTCCGGTTCATG
modifications: O6-POB-dG at strand 1 position 9
B5: p53 codon 248 both MeC O6-POB-G (dsDNA)
DNA 1: CATGAACCGGAGGCCCATC
DNA 2: GATGGGCCTCCGGTTCATG
modifications: O6-POB-dG at strand 1 position 9; 5-methyl-C at strand 1 position 8 and strand 2 position 11

Sequence of AGT (O6-alkylguanine-DNA alkyltransferase) C145A (P16455 whole entry C145A): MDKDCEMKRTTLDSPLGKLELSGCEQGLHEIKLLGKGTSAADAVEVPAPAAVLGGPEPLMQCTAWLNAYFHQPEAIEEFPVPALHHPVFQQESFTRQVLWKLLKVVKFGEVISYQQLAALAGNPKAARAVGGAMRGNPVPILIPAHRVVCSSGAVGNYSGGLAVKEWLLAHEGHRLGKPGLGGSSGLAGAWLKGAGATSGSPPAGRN

The series addresses AGT (O6-alkylguanine-DNA alkyltransferase) C145A (Homo sapiens, UniProt P16455 1-207, C145A). Description: EMSA.
The Kd is the free concentration of one partner at which half of the binding sites on the other are occupied at equilibrium, for simple one-to-one binding. High values mean weaker binding, low ones tighter binding. Take B1: the affinity, expressed as Kd, was 4800 ± 500 nM.

Take B2: the dissociation constant (Kd) was 1800 ± 300 nM.

For the molecule B3, the affinity, expressed as Kd, was 2000 ± 200 nM.

In turn, B4 had a Kd of 2200 nM.

Molecule B5 came in with a Kd of 1000 ± 100 nM.
